# Data as given in patent publication US20260049138A1 (Chugai, published 2026).
# Target: T1, CD3ε homodimer protein (human, UniProt P07766 23-126, limits assumed)
# T1 construct: also called CD3 (CD3ε)
# Assay: SPR Biacore T200, CD3ε homodimer on chip;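 further: Light-chain single-residue variant antibodies injected over amine-coupled CD3ε homodimer on a CM4 chip at 25 °C, bound amount divided by that of the GLS3000-containing antibody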
# T1 sequence (P07766 23-126 limits assumed): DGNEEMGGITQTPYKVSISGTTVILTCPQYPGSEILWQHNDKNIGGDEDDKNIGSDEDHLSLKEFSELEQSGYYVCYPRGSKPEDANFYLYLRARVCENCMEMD
binder,measurement,value
"GLS3000 R54E one-arm antibody (antibody, human IgG1, kappa, L234A L235A, N297A, name in Kabat numbering) heavy: QVQLVESGGGVVQPGRSLRLSCAASGFTFSNAWMHWVRQAPGKGLEWVAQIKAKSNNYATYYAESVKGRFTISRDDSKNSLYLQMNSLKTEDTAVYYCRYVHYGAYYGVDAWGQGTTVTVSSASTKGPSVFPLAPSSKSTSGGTAALGCLVKDYFPEPVTVSWNSGALTSGVHTFPAVLQSSGLYSLSSVVTVPSSSLGTQTYICNVNHKPSNTKVDKKVEPKSCDKTHTCPPCPAPEAAGGPSVFLFPPKPKDTLMISRTPEVTCVVVDVSHEDPEVKFNWYVDGVEVHNAKTKPREEQYASTYRVVSVLTVLHQDWLNGKEYKCKVSNKALPAPIEKTISKAKGQPREPQVYTLPPSRCELTKNQVSLSCAVKGFYPSDIAVEWESNGQPENNYKTTPPVLDSDGSFFLVSKLTVDKSRWQQGNVFSCSVMHEALHNHYTQKSLSLSPDYKDDDDK EPKSSDKTHTCPPCPAPELLGGPSVFLFPPKPKDTLMISRTPEVTCVVVDVSHEDPEVKFNWYVDGVEVHNAKTKPREEQYNSTYRVVSVLTVLHQDWLNGKEYKCKVSNKALPAPIEKTISKAKGQPREPQVCTLPPSRDELTKNQVSLWCLVKGFYPSDIAVEWESNGQPENNYKTTPPVLDSDGSFFLYSKLTVDKSRWQQGNVFSCSVMHEALHNRYTQKSLSLSP light: DIVMTQSPLSLPVTPGEPASISCRSSQSLVHSNRNTYLHWYQQKPGQAPRLLIYKVSNEFSGVPDRFSGSGSGTDFTLKISRVEAEDVGVYYCGQGTQVPYTFGQGTKLEIKRTVAAPSVFIFPPSDEQLKSGTASVVCLLNNFYPREAKVQWKVDNALQSGNSQESVTEQDSKDSTYSLSSTLTLSKADYEKHKVYACEVTHQGLSSPVTKSFNRGEC",ratio of amount bound vs unaltered GLS3000,0.58
"GLS3000 R54Q one-arm antibody (antibody, human IgG1, kappa, L234A L235A, N297A, name in Kabat numbering) heavy: QVQLVESGGGVVQPGRSLRLSCAASGFTFSNAWMHWVRQAPGKGLEWVAQIKAKSNNYATYYAESVKGRFTISRDDSKNSLYLQMNSLKTEDTAVYYCRYVHYGAYYGVDAWGQGTTVTVSSASTKGPSVFPLAPSSKSTSGGTAALGCLVKDYFPEPVTVSWNSGALTSGVHTFPAVLQSSGLYSLSSVVTVPSSSLGTQTYICNVNHKPSNTKVDKKVEPKSCDKTHTCPPCPAPEAAGGPSVFLFPPKPKDTLMISRTPEVTCVVVDVSHEDPEVKFNWYVDGVEVHNAKTKPREEQYASTYRVVSVLTVLHQDWLNGKEYKCKVSNKALPAPIEKTISKAKGQPREPQVYTLPPSRCELTKNQVSLSCAVKGFYPSDIAVEWESNGQPENNYKTTPPVLDSDGSFFLVSKLTVDKSRWQQGNVFSCSVMHEALHNHYTQKSLSLSPDYKDDDDK EPKSSDKTHTCPPCPAPELLGGPSVFLFPPKPKDTLMISRTPEVTCVVVDVSHEDPEVKFNWYVDGVEVHNAKTKPREEQYNSTYRVVSVLTVLHQDWLNGKEYKCKVSNKALPAPIEKTISKAKGQPREPQVCTLPPSRDELTKNQVSLWCLVKGFYPSDIAVEWESNGQPENNYKTTPPVLDSDGSFFLYSKLTVDKSRWQQGNVFSCSVMHEALHNRYTQKSLSLSP light: DIVMTQSPLSLPVTPGEPASISCRSSQSLVHSNRNTYLHWYQQKPGQAPRLLIYKVSNQFSGVPDRFSGSGSGTDFTLKISRVEAEDVGVYYCGQGTQVPYTFGQGTKLEIKRTVAAPSVFIFPPSDEQLKSGTASVVCLLNNFYPREAKVQWKVDNALQSGNSQESVTEQDSKDSTYSLSSTLTLSKADYEKHKVYACEVTHQGLSSPVTKSFNRGEC",ratio of amount bound vs unaltered GLS3000,0.68
"GLS3000 R54G one-arm antibody (antibody, human IgG1, kappa, L234A L235A, N297A, name in Kabat numbering) heavy: QVQLVESGGGVVQPGRSLRLSCAASGFTFSNAWMHWVRQAPGKGLEWVAQIKAKSNNYATYYAESVKGRFTISRDDSKNSLYLQMNSLKTEDTAVYYCRYVHYGAYYGVDAWGQGTTVTVSSASTKGPSVFPLAPSSKSTSGGTAALGCLVKDYFPEPVTVSWNSGALTSGVHTFPAVLQSSGLYSLSSVVTVPSSSLGTQTYICNVNHKPSNTKVDKKVEPKSCDKTHTCPPCPAPEAAGGPSVFLFPPKPKDTLMISRTPEVTCVVVDVSHEDPEVKFNWYVDGVEVHNAKTKPREEQYASTYRVVSVLTVLHQDWLNGKEYKCKVSNKALPAPIEKTISKAKGQPREPQVYTLPPSRCELTKNQVSLSCAVKGFYPSDIAVEWESNGQPENNYKTTPPVLDSDGSFFLVSKLTVDKSRWQQGNVFSCSVMHEALHNHYTQKSLSLSPDYKDDDDK EPKSSDKTHTCPPCPAPELLGGPSVFLFPPKPKDTLMISRTPEVTCVVVDVSHEDPEVKFNWYVDGVEVHNAKTKPREEQYNSTYRVVSVLTVLHQDWLNGKEYKCKVSNKALPAPIEKTISKAKGQPREPQVCTLPPSRDELTKNQVSLWCLVKGFYPSDIAVEWESNGQPENNYKTTPPVLDSDGSFFLYSKLTVDKSRWQQGNVFSCSVMHEALHNRYTQKSLSLSP light: DIVMTQSPLSLPVTPGEPASISCRSSQSLVHSNRNTYLHWYQQKPGQAPRLLIYKVSNGFSGVPDRFSGSGSGTDFTLKISRVEAEDVGVYYCGQGTQVPYTFGQGTKLEIKRTVAAPSVFIFPPSDEQLKSGTASVVCLLNNFYPREAKVQWKVDNALQSGNSQESVTEQDSKDSTYSLSSTLTLSKADYEKHKVYACEVTHQGLSSPVTKSFNRGEC",ratio of amount bound vs unaltered GLS3000,0.67
"GLS3000 R54S one-arm antibody (antibody, human IgG1, kappa, L234A L235A, N297A, name in Kabat numbering) heavy: QVQLVESGGGVVQPGRSLRLSCAASGFTFSNAWMHWVRQAPGKGLEWVAQIKAKSNNYATYYAESVKGRFTISRDDSKNSLYLQMNSLKTEDTAVYYCRYVHYGAYYGVDAWGQGTTVTVSSASTKGPSVFPLAPSSKSTSGGTAALGCLVKDYFPEPVTVSWNSGALTSGVHTFPAVLQSSGLYSLSSVVTVPSSSLGTQTYICNVNHKPSNTKVDKKVEPKSCDKTHTCPPCPAPEAAGGPSVFLFPPKPKDTLMISRTPEVTCVVVDVSHEDPEVKFNWYVDGVEVHNAKTKPREEQYASTYRVVSVLTVLHQDWLNGKEYKCKVSNKALPAPIEKTISKAKGQPREPQVYTLPPSRCELTKNQVSLSCAVKGFYPSDIAVEWESNGQPENNYKTTPPVLDSDGSFFLVSKLTVDKSRWQQGNVFSCSVMHEALHNHYTQKSLSLSPDYKDDDDK EPKSSDKTHTCPPCPAPELLGGPSVFLFPPKPKDTLMISRTPEVTCVVVDVSHEDPEVKFNWYVDGVEVHNAKTKPREEQYNSTYRVVSVLTVLHQDWLNGKEYKCKVSNKALPAPIEKTISKAKGQPREPQVCTLPPSRDELTKNQVSLWCLVKGFYPSDIAVEWESNGQPENNYKTTPPVLDSDGSFFLYSKLTVDKSRWQQGNVFSCSVMHEALHNRYTQKSLSLSP light: DIVMTQSPLSLPVTPGEPASISCRSSQSLVHSNRNTYLHWYQQKPGQAPRLLIYKVSNSFSGVPDRFSGSGSGTDFTLKISRVEAEDVGVYYCGQGTQVPYTFGQGTKLEIKRTVAAPSVFIFPPSDEQLKSGTASVVCLLNNFYPREAKVQWKVDNALQSGNSQESVTEQDSKDSTYSLSSTLTLSKADYEKHKVYACEVTHQGLSSPVTKSFNRGEC",ratio of amount bound vs unaltered GLS3000,0.79
"GLS3000 R54P one-arm antibody (antibody, human IgG1, kappa, L234A L235A, N297A, name in Kabat numbering) heavy: QVQLVESGGGVVQPGRSLRLSCAASGFTFSNAWMHWVRQAPGKGLEWVAQIKAKSNNYATYYAESVKGRFTISRDDSKNSLYLQMNSLKTEDTAVYYCRYVHYGAYYGVDAWGQGTTVTVSSASTKGPSVFPLAPSSKSTSGGTAALGCLVKDYFPEPVTVSWNSGALTSGVHTFPAVLQSSGLYSLSSVVTVPSSSLGTQTYICNVNHKPSNTKVDKKVEPKSCDKTHTCPPCPAPEAAGGPSVFLFPPKPKDTLMISRTPEVTCVVVDVSHEDPEVKFNWYVDGVEVHNAKTKPREEQYASTYRVVSVLTVLHQDWLNGKEYKCKVSNKALPAPIEKTISKAKGQPREPQVYTLPPSRCELTKNQVSLSCAVKGFYPSDIAVEWESNGQPENNYKTTPPVLDSDGSFFLVSKLTVDKSRWQQGNVFSCSVMHEALHNHYTQKSLSLSPDYKDDDDK EPKSSDKTHTCPPCPAPELLGGPSVFLFPPKPKDTLMISRTPEVTCVVVDVSHEDPEVKFNWYVDGVEVHNAKTKPREEQYNSTYRVVSVLTVLHQDWLNGKEYKCKVSNKALPAPIEKTISKAKGQPREPQVCTLPPSRDELTKNQVSLWCLVKGFYPSDIAVEWESNGQPENNYKTTPPVLDSDGSFFLYSKLTVDKSRWQQGNVFSCSVMHEALHNRYTQKSLSLSP light: DIVMTQSPLSLPVTPGEPASISCRSSQSLVHSNRNTYLHWYQQKPGQAPRLLIYKVSNPFSGVPDRFSGSGSGTDFTLKISRVEAEDVGVYYCGQGTQVPYTFGQGTKLEIKRTVAAPSVFIFPPSDEQLKSGTASVVCLLNNFYPREAKVQWKVDNALQSGNSQESVTEQDSKDSTYSLSSTLTLSKADYEKHKVYACEVTHQGLSSPVTKSFNRGEC",ratio of amount bound vs unaltered GLS3000,0.84
"GLS3000 R54T one-arm antibody (antibody, human IgG1, kappa, L234A L235A, N297A, name in Kabat numbering) heavy: QVQLVESGGGVVQPGRSLRLSCAASGFTFSNAWMHWVRQAPGKGLEWVAQIKAKSNNYATYYAESVKGRFTISRDDSKNSLYLQMNSLKTEDTAVYYCRYVHYGAYYGVDAWGQGTTVTVSSASTKGPSVFPLAPSSKSTSGGTAALGCLVKDYFPEPVTVSWNSGALTSGVHTFPAVLQSSGLYSLSSVVTVPSSSLGTQTYICNVNHKPSNTKVDKKVEPKSCDKTHTCPPCPAPEAAGGPSVFLFPPKPKDTLMISRTPEVTCVVVDVSHEDPEVKFNWYVDGVEVHNAKTKPREEQYASTYRVVSVLTVLHQDWLNGKEYKCKVSNKALPAPIEKTISKAKGQPREPQVYTLPPSRCELTKNQVSLSCAVKGFYPSDIAVEWESNGQPENNYKTTPPVLDSDGSFFLVSKLTVDKSRWQQGNVFSCSVMHEALHNHYTQKSLSLSPDYKDDDDK EPKSSDKTHTCPPCPAPELLGGPSVFLFPPKPKDTLMISRTPEVTCVVVDVSHEDPEVKFNWYVDGVEVHNAKTKPREEQYNSTYRVVSVLTVLHQDWLNGKEYKCKVSNKALPAPIEKTISKAKGQPREPQVCTLPPSRDELTKNQVSLWCLVKGFYPSDIAVEWESNGQPENNYKTTPPVLDSDGSFFLYSKLTVDKSRWQQGNVFSCSVMHEALHNRYTQKSLSLSP light: DIVMTQSPLSLPVTPGEPASISCRSSQSLVHSNRNTYLHWYQQKPGQAPRLLIYKVSNTFSGVPDRFSGSGSGTDFTLKISRVEAEDVGVYYCGQGTQVPYTFGQGTKLEIKRTVAAPSVFIFPPSDEQLKSGTASVVCLLNNFYPREAKVQWKVDNALQSGNSQESVTEQDSKDSTYSLSSTLTLSKADYEKHKVYACEVTHQGLSSPVTKSFNRGEC",ratio of amount bound vs unaltered GLS3000,0.65
